# Substitutions are numbered along the chain they refer to.
# B1: D. melanogaster Gαq/z5 (other)
# chain: MECCLSEEAKEQKRINQEIEKQLRRDKRDARRELKLLLLGTGESGKSTFIKQMRIIHGSGYSDEDKRGYIKLVFQNIFMAMQSMIKAMDMLKISYGQGEHSELADLVMSIDYETVTTFEDPYLNAIKTLWDDAGIQECYDRRREYQLTDSAKYYLKDLDRVAQPAYLPTEQDILRVRVPTTGIIEYPFDLEEIRFRMVDVGGQRSERRKWIHCFENVTSIIFLVALSEYDQILFESDNENRMEESKALFRTIITYPWFQNSSVILFLNKKDLLEEKIMYSHLVDYFPEYDGPQRDAITAREFILRMFVDLNPDSEKIIYSHFTCATDTENIRFVFAAVKDTILQSNLKYIGLC
# B2: Human Gαq/z5 (identical to Accession number L76256) (other)
# chain: MTLESIMACCLSEEAKEARRINDEIERQLRRDKRDARRELKLLLLGTGESGKSTFIKQMRIIHGSGYSDEDKRGFTKLVYQNIFTAMQAMIRAMDTLKIPYKYEHNKAHAQLVREVDVEKVSAFENPYVDAIKSLWNDPGIQECYDRRREYQLSDSTKYYLNDLDRVADPAYLPTQQDVLRVRVPTTGIIEYPFDLQSVIFRMVDVGGQRSERRKWIHCFENVTSIMFLVALSEYDQVLVESDNENRMEESKALFRTIITYPWFQNSSVILFLNKKDLLEEKIMYSHLVDYFPEYDGPQRDAQAAREFILKMFVDLNPDSDKIIYSHFTCATDTENIRFVFAAVKDTILQLNLKYIGLC
# B3: C. elegans Gαq/s9 (other)
# chain: MACCLSEEAREQKRINQEIEKQLQRDKRNARRELKLLLLGTGESGKSTFIKQMRIIHGQGYSEEDKRAHIRLVYQNVFMAIQSMIRAMDTLDIKFGNESEELQEKAAVVREVDFESVTSFEEPYVSYIKELWEDSGIQECYDRRREYQLTDSAKYYLSDLRRLAVPDYLPTEQDILRVRVPTTGIIEYPFDLEQIIFRMVDVGGQRSERRKWIHCFENVTSIMFLVALSEYDQVLVECDNENRMEESKALFRTIITYPWFTNSSVILFLNKKDLLEEKILYSHLADYFPEYDGPPRDPIAAREFILKMFVDLNPDADKIIYSHFTCATDTENIRFVFAAVKDTILQMHLRQYELL
# B4: Human Gαq/s5 (other)
# chain: B2 chain with A171S, Y355Q, I356Y, G357E, C359L
# B5: Human Gαq/s9 (other)
# chain: B2 chain with A171S, L351M, N352H, K354R, Y355Q, I356Y, G357E, C359L
# B6: C. elegans Gαq/s21 (other)
# chain: B3 chain with F335R, A338N, A339D, V340C, K341R, T343I, L345Q, Q346R
# Biological target: T1, human dopamine D1 receptor (human, UniProt P21728 1-446)
# Experiment: cell-based or functional assay
# T1 sequence (P21728 whole entry): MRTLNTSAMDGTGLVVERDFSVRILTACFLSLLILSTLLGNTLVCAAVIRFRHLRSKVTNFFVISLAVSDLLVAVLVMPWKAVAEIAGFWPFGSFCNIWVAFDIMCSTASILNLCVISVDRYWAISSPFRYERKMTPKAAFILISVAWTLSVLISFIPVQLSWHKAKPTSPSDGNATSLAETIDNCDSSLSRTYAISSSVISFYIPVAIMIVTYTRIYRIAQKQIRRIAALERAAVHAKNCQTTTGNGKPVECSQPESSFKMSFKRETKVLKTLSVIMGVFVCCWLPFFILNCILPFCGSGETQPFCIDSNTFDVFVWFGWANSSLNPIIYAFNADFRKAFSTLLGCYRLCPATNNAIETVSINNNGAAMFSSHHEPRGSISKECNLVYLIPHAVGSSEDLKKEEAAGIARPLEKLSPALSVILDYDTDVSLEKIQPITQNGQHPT
row,Binder,"max Ca2+ signal, COS-7, FLIPR; 100 µM dopamine [fluorescence units]"
1,B1,2150
2,B2,0

# Biological target: T1, human dopamine D1 receptor
# Experiment: cell-based or functional assay
# Remark: another data set of the same source
row,Binder,"max Ca2+ signal, COS-7, FLIPR; agonist dopamine; fold over hGαq/s9 [fold]"
1,B3,1.5

# Biological target: human GLP-1 receptor (human, UniProt P43220 24-463)
# Experiment: cell-based or functional assay
row,Binder,"max Ca2+ signal, COS-7, FLIPR; agonist GLP-1 [fluorescence units]"
1,B3,2460
2,B4,189
3,B5,4200
4,B6,3120

# Biological target: human dopamine D5 receptor (human, UniProt P21918 1-477)
# Experiment: cell-based or functional assay
# human dopamine D5 receptor, sequence (P21918 whole entry): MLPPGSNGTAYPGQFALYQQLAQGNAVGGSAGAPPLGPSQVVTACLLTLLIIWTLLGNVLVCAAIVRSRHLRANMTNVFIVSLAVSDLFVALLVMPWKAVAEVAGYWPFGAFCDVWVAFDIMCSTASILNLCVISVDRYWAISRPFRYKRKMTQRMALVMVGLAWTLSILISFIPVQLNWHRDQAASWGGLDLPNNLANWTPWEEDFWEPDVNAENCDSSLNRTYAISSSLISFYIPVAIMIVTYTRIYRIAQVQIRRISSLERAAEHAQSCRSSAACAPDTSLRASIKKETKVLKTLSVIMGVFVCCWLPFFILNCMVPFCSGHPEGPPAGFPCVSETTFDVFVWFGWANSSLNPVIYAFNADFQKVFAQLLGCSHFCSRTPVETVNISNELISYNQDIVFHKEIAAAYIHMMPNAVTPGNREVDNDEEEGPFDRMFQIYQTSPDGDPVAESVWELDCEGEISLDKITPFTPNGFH
row,Binder,"max Ca2+ signal, COS-7, FLIPR; agonist DA [fluorescence units]"
1,B3,1870
2,B4,0
3,B5,745
4,B6,3380

# Biological target: human β2 adrenergic receptor (human, UniProt P07550 1-413)
# Experiment: cell-based or functional assay
row,Binder,"max Ca2+ signal, COS-7, FLIPR; agonist NE [fluorescence units]"
1,B3,3110
2,B4,43
3,B5,1440
4,B6,3510

# Biological target: human 5HT4 receptor (human, UniProt Q13639 1-388)
# Experiment: cell-based or functional assay
# human 5HT4 receptor, sequence (Q13639 whole entry): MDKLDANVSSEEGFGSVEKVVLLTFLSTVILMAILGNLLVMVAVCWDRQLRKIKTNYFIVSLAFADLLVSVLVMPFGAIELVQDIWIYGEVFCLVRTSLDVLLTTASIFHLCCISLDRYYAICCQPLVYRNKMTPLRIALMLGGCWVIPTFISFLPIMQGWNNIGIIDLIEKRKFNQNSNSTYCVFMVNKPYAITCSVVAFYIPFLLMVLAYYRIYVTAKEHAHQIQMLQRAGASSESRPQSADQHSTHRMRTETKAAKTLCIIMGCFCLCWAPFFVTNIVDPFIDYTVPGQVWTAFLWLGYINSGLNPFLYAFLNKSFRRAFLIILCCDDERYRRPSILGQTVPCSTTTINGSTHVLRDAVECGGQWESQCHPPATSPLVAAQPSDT
row,Binder,"max Ca2+ signal, COS-7, FLIPR; agonist 5HT [fluorescence units]"
1,B3,1700
2,B4,1710
3,B5,2310
4,B6,1730

# Biological target: T1, human dopamine D1 receptor
# Experiment: cell-based or functional assay
# Remark: another data set of the same source
row,Binder,"max Ca2+ signal, COS-7, FLIPR; agonist DA [fluorescence units]"
1,B3,8690
2,B4,0
3,B5,5690
4,B6,9430

# Biological target: human 5HT7 receptor (human, UniProt P34969 1-479)
# Experiment: cell-based or functional assay
# human 5HT7 receptor, sequence (P34969 whole entry): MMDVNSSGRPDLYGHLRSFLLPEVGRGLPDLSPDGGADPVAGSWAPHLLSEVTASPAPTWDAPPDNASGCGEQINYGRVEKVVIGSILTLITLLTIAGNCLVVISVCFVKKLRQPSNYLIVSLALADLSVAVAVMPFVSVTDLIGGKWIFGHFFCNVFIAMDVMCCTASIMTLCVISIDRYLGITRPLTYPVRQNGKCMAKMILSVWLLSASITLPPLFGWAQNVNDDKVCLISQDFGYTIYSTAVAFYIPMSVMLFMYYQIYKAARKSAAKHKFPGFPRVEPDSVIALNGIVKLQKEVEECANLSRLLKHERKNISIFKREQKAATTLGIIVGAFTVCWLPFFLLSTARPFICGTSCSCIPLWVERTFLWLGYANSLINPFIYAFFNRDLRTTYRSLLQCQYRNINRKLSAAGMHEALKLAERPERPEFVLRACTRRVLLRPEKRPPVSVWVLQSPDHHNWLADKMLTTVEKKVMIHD
row,Binder,"max Ca2+ signal, COS-7, FLIPR; agonist 5HT [fluorescence units]"
1,B3,387
2,B4,0
3,B5,0
4,B6,206

# Biological target: human 5HT6 receptor (human, UniProt P50406 1-440)
# Experiment: cell-based or functional assay
# human 5HT6 receptor, sequence (P50406 whole entry): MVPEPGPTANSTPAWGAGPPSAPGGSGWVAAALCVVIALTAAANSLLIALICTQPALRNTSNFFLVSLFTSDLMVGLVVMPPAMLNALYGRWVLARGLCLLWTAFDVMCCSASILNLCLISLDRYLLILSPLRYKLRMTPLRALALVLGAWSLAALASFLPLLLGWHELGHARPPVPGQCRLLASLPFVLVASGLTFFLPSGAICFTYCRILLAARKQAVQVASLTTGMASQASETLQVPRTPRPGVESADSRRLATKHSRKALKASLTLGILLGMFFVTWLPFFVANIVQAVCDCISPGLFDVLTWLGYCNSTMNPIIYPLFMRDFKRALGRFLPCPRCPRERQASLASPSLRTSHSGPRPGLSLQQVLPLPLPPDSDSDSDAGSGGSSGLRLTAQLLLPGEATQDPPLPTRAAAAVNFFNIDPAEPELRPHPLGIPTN
row,Binder,"max Ca2+ signal, COS-7, FLIPR; agonist 5HT [fluorescence units]"
1,B3,1640
2,B4,98
3,B5,999
4,B6,1010

# — patent US7067277 (H LUNDBECK A S, dated 2006)
